The target of assay [1] is T1, recombinant human NKp30 extracellular domain, his-tagged (human, UniProt O14931 19-135).
T1 construct: BLI used human NKp30 bought from Abcam (his-tagged ECD); also called rh NKp30 ECD; human NKp30 (Abcam); not shown: his tag
T1 sequence: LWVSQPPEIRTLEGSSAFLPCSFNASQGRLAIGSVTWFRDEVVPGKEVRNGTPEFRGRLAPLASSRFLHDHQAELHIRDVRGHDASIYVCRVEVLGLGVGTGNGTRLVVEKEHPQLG
Put plainly: BLI as in Example 1, maximum binding capacity.

The target of assay [2] is T1, recombinant human NKp30 extracellular …. Put plainly: BLI as in Example 1.
Assay [3] deals with recombinant human NKp30 extracellular domain, his-tagged (human) (UniProt O14931). In words: BLI, SEEDbody on anti-human Fc sensors, soluble NKp30, 1:1 fit. (Biolayer interferometry detects binding as a change in optical thickness at a sensor tip.)
The target of assay [4] is NKp30 on human NK cells (human) (UniProt O14931). In words: cell-based or functional assay.
Assay [5] has as its target FcγRIIIa on human NK cells (human) (UniProt P08637). Put plainly: cell-based or functional assay.
Assay [6] has as its target T1, recombinant human NKp30 extracellular …. In words: BLI as in Example 1, maximum binding capacity. This is another data set of the same source.
Assay [7] shares this target. In words: BLI as in Example 1. The source holds these as a separate data set.

Numbering of substitutions follows the chain as printed. Where two headings read alike, the source gives them in different places.

As a reminder, the Kd is the free concentration of one partner at which half of the binding sites on the other are occupied at equilibrium, for simple one-to-one binding. The term koff denotes the rate constant with which the complex falls apart. The kon is a measure of how fast the partners come together.

FcγRIIIa on human NK cells (human), sequence (P08637 17-254): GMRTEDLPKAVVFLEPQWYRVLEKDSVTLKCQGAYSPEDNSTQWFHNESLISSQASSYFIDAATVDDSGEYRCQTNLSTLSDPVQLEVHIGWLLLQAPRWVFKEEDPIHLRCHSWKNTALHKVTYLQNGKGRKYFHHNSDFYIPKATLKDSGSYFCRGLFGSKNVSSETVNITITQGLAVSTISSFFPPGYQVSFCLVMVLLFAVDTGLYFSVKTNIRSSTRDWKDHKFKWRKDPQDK

B1: VHH2.16 (humanized) (VHH)
VHH: EVQLVESGGGVVQPGGSLRLSCAASGQTWTNYHIGWFRQAPGKGLEWVASIEWGGRGTYATDSVKGRFTISRDNAKNTLYLQMNSLRAEDTAVYYCAAQSSSRSPLESNYDYWGQGTLVTVSS
notes: expressed and measured by BLI 'as described in Experiment 1' (there: bispecific SEEDbody on anti-human Fc sensors)
With B1, the “Emax (nm)” value in assay [1] amounted to 0.11 nm. The dissociation constant (Kd) in assay [2] was found to be 4.71 nM.

B2: VHH2 SEEDbody eff- (bispecific antibody, part only; not given: silenced SEED Fc and cetuximab Fab, V domains shown, not shown: another chain or arm of the molecule; a dimerising Fc or GST; small tags and cut ends)
VHH: DVQLQESGGGLVQAGGSLRLSCAVSGQTWTNYHIGWFRQAPGKARESVASIEWGGRGTYATDSVKGRFTISRDNAKNTVYLQMNSLKPEDTAVYYCAAQSSSRSPLESNYDYWGQGTQVTVSS
For the molecule B2, in assay [3], the Kd amounted to 3.27 nM, the koff turned out to be 0.000646 s⁻¹ and the kon was 198000 M⁻¹ s⁻¹. In assay [4], this molecule gave an EC50 (nM), MNC based killing of A431 cells, E:T 80:1 of 0.0132 nM; an EC50, lysis of A431 cells by isolated NK cells, E:T 10:1 of 0.0344 nM; a Max. IFNγ release (pg/ml), NK cells with A431 cells of 580 pg/mL; a Max. Killing (% Lysis), MNC based killing of A431 cells, E:T 80:1 of 51 % Lysis. Also, in assay [4], the Max. TNFα release (pg/ml), NK cells with A431 cells is 118 pg/mL. In addition, in assay [5], the EC50, lysis of A431 cells by isolated NK cells, E:T 10:1 was 0.0039 nM and the fold increase of killing potency, eff+ against eff- was determined as 8.8 fold.

B3: VHH1 SEEDbody eff- (bispecific antibody, part only; not given: silenced SEED Fc and cetuximab Fab, V domains shown, not shown: another chain or arm of the molecule; a dimerising Fc or GST; small tags and cut ends)
VHH: DVQLQESGGGLVQPGGSLRLSCATSGFTLDDYTIGWVRQAPGKEHEGVSCFSPSDGTTYYADSVKGRFTFSRDNAKNTVYLQMNSLKPEDTAVYYCAASFADGSSWCYDYWGQGTQVTVSS
Regarding B3, in assay [3], the equilibrium dissociation constant (Kd) came out at 0.27 nM, the dissociation rate constant (koff) was found to be 0.000222 s⁻¹ and the kon turned out to be 819000 M⁻¹ s⁻¹. In assay [4], this molecule displayed an EC50 (nM), MNC based killing of A431 cells, E:T 80:1 of 0.00171 nM; an EC50, lysis of A431 cells by isolated NK cells, E:T 10:1 of 0.0022 nM; a Max. IFNγ release (pg/ml), NK cells with A431 cells of 753 pg/mL; a Max. Killing (% Lysis), MNC based killing of A431 cells, E:T 80:1 of 53 % Lysis. The molecule also yielded a Max. TNFα release (pg/ml), NK cells with A431 cells in assay [4] of 104 pg/mL. In assay [5], the EC50, lysis of A431 cells by isolated NK cells, E:T 10:1 was determined as 0.0032 nM.

B4: VHH1 (parental, as tested in Example 8) (VHH)
VHH: B3 VHH
notes: as for B1
As to B4, the “Emax (nm)” value in assay [6] amounted to 0.13 nm. The Kd in assay [7] amounted to 0.248 nM.

B5: VHH1.1 (humanized) (VHH)
VHH: B3 VHH with D1E, Q5V, L11V, K87R, P88A, Q116L
notes: as for B1
As for B5, the “Emax (nm)” value in assay [6] was found to be 0.13 nm. In assay [7], the Kd turned out to be 0.275 nM.

B6: VHH1.8 (humanized) (VHH)
VHH: B3 VHH with D1E, Q5V, L11V, E44G, H45L, F70I, V79L, K87R, P88A, Q116L
notes: as for B1
As to B6, the “Emax (nm)” value in assay [6] worked out at 0.1 nm. Moreover, the Kd in assay [7] was 1.13 nM.

B7: VHH1.2 (humanized) (VHH)
VHH: B3 VHH with D1E, Q5V, L11V, V79L, K87R, P88A, Q116L
notes: as for B1
For the molecule B7, in assay [6], the “Emax (nm)” value amounted to 0.12 nm. In assay [7], the Kd was 0.293 nM.

B8: VHH1.5 (humanized) (VHH)
VHH: B3 VHH with D1E, Q5V, L11V, T24A, E44G, H45L, F70I, K87R, P88A, Q116L
notes: as for B1
Consider B8, for which the “Emax (nm)” value in assay [6] came to 0.1 nm. In addition, in assay [7], the Kd turned out to be 0.888 nM.

B9: VHH1.7 (humanized) (VHH)
VHH: B3 VHH with D1E, Q5V, L11V, T24A, E44G, H45L, V79L, K87R, P88A, Q116L
notes: as for B1
Take B9: the “Emax (nm)” value in assay [6] worked out at 0.09 nm. The Kd in assay [7] is 0.533 nM.

B10: VHH1.6 (humanized) (VHH)
VHH: B3 VHH with D1E, Q5V, L11V, E44G, H45L, V79L, K87R, P88A, Q116L
notes: as for B1
With B10, the “Emax (nm)” value in assay [6] was 0.14 nm. In assay [7], the Kd is 0.797 nM.

B11: VHH1.4 (humanized) (VHH)
VHH: B3 VHH with D1E, Q5V, L11V, E44G, H45L, K87R, P88A, Q116L
notes: as for B1
In the case of B11, the “Emax (nm)” value in assay [6] was 0.12 nm. Besides, in assay [7], the Kd was 0.547 nM.

B12: VHH1.9 (humanized) (VHH)
VHH: EVQLVESGGGVVQPGGSLRLSCAASGFTLDDYTIGWVRQAPGKGLEGVSCFSPSDGTTYYADSVKGRFTISRDNAKNTLYLQMNSLRAEDTAVYYCAASFADGSSWCYDYWGQGTLVTVSS
notes: as for B1
Consider B12, for which the “Emax (nm)” value in assay [6] stood at 0.1 nm. Moreover, the Kd in assay [7] was 1.06 nM.

B13: VHH1.3 (humanized) (VHH)
VHH: B12 VHH with G44E, L45H
notes: as for B1
On to B13, for which, in assay [6], the “Emax (nm)” value is 0.12 nm. The Kd in assay [7] is 1.07 nM.
